Laboratory results as given in US20100285022A1 (TRELLIS RSV, published 2010).

T1: RSV G protein of strain A (Ga protein) (respiratory syncytial virus, strain A …, UniProt P03423 66-298)
T1 construct: also called RSV-Ga; RSV-GA2 protein
T1 sequence (looked up): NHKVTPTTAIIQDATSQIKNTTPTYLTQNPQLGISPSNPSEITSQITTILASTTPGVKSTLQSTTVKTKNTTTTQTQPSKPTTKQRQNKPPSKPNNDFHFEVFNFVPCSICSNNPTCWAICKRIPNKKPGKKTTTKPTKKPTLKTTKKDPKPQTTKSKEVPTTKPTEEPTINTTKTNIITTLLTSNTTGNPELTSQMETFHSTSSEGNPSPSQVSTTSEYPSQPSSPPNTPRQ

T2: Ga derived 12-mer peptide SKPNNDFHFEVF (SEQ ID NO:8) (respiratory syncytial virus, strain A …)
T2 construct: Peptide on an array of overlapping 12-mers
T2 peptide: SKPNNDFHFEVF

B1: human monoclonal antibody 1D4 (antibody, V domains shown)
VH: QVQLLQSGAELKKPGASVKVSCQASIDTFSTYYIHWVRQAPGQGLEWLGVINPSGGSTTYAQKFQDRITLTTDTSTRTVYMDLSSLRSEDTAVYYCARVHKGRAEQWQLLHGHFDLWGRGSLVTVSS
VL: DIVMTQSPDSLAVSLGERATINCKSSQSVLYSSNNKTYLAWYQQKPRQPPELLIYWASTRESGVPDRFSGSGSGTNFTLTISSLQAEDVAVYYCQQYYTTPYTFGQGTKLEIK
B2: human monoclonal antibody 3G12 (antibody, V domains shown)
VH: QLQLQESGPGLVKPSETLSLTCTVSGGSISSSNYYWGWIRQPPGKGLEWIASIHDSGSIYYNPSLRSRVTISVDTSKNQFSLKLSSVTAADTAVYYCARHLVWFGELRNNWFDPWGQGTLVTVAS
VL: EIVMTQSPATLSVSPGERATLSCRASQSVNSNLAWYQHKPGQAPRLLIYGASTRATGIPARFSGSGSGTDFTLTISSLQSEDFAVYYCQQYNNWPLFGPGTKVDLK
B3: human monoclonal antibody 3D3 (antibody, V domains shown)
VH: EEQLVESGGGLVQPGRSLRLSCVGSGLRFEEHAMHWVRQAPGRGLEWVSGISWNSGSVGYADSVKGRFTTSRDNAKDILFLEMNTLRSEDTALYFCAIMVATTKNDFHYYKDVWGKGTTVTVSS
VL: QIVLTQSPATLSLSPGERATLSCKASQSVSNHLAWYQQKPGQAPRLLIYETSNRATGIPPRFSGSGSGTDFTLTISSLEPEDFAVYYCQQRNNWYTFGQGTKLEIK
B4: murine monoclonal antibody 131-2G (antibody, V domains shown)
VH: EVQLQQSGPELVKPGTSVKISCKASGYSFTGFTMNWVKQSHGKNLEWFGLINPFNGNTGYNQKFKGKATLTVDKSSSTAFMELLSLTSEDSAVYYCARSGKSYDYEAWFTYWGQGTLVTVSA
VL: DIVMTQTTLSLPVSLGNQASISCRSSQTIVHTNGNTYLEWYLQKPGQSPKLLIYKVSNRFSGVPDRFSGSGSGTDFILNISRVEAEDLGVYYCFQGSHVPFTFGSGTKLEIKR
notes: also called mAb 1312G
B5: human monoclonal antibody 5D8 (antibody, V domains shown)
VH: QAQLVESGGGVVQPGRSLRLSCAASGFTFSYSGMHWVRQAPGRGLEWLAVISYDGNKMYYADSVKGRFTISRDNSKMTLYLQMNSLRREDTAVYYCAKDGLDYGGDLVYYGMDVWGNGTTVTVSS
VL: SYELTQPPSVSVSPGQTGRITCTGSEASGDALASRYAYWYQHKSGQAPVVLIYKDTERPSGISERFSGSSSGTTVTLIISGVLAEDEADYYCKTSVRNGTSWVFGTGTMLTVL
B6: human monoclonal antibody 1G8 (antibody, V domains shown)
VH: QLQLQESGPGLVKPSETLSLTCTVSGDSITSGQYYWAWIRQAPGKGLEWIGSIHYSGSTYQNPSLKSRLTISVDTSRDQISMKLSSVTVAESAVYYCAKQQLSLSPVENWFDPWGQGTLVTVSS
VL: EIVVTQSPVTLSVSPGESAALSCRASRSVGSRLAWYQQKPGQPPRLLIFAASTRATGIPARFSGSGSGTDFTLIISGLQSEDYAVYYCQQYKEWPLFTFGPGTTVDSK

What was measured:
[1] = molecular target: T3, RSV G protein of strain B (Gb protein) (respiratory syncytial virus, strain B); experiment: Biacore, antibody on chip, recombinant Gb in flow
T3 construct: also called RSV-Gb; G protein from strain B

[2] = molecular target: T1, RSV G protein of strain A (Ga protein); experiment: Biacore, antibody on chip, recombinant Ga in flow
[3] = molecular target: T4, G protein on live RSV virus coated on the plate (strain not stated) (respiratory syncytial virus); experiment: ELISA on live RSV virus coated on the plate, anti-human Fc-HRP detection
T4 construct: whole, on cells; also called live virus; virus particles

[4] = molecular target: T2, Ga derived 12-mer peptide SKPNNDFHFEVF …; experiment: peptide array of overlapping 12-mer Ga peptides probed with 131-2G at 1 ug/ml, chemiluminescence
[5] = molecular target: T1, RSV G protein of strain A (Ga protein); experiment: Biacore, ratio of on-rate to off-rate; Biacore, not the ELISA midpoint (4 nM)

| Binder | Kd [2] | EC50 (read off the curve) [3] | also measured |
| --- | --- | --- | --- |
| B1 | 0.23 nM | – | Kd [1]: 0.052 nM |
| B2 | 0.579 nM | – | – |
| B3 | 0.0011 nM | ~0.1 µg/mL | – |
| B4 | – | – | binding result [4]: binds; Kd [5]: 7 nM |
| B5 | 4.39 nM | – | – |
| B6 | 0.024 nM | ~0.3 µg/mL | – |
